Consider 1 variant from IntAct's records for PubMed 11069292.

B1: Transcription factor PIF3 (Arabidopsis thaliana (Mouse-ear cress)), O80536 (parent)
chain: MPLFELFRLTKAKLESAQDRNPSPPVDEVVELVWENGQISTQSQSSRSRNIPPPQANSSRAREIGNGSKTTMVDEIPMSVPSLMTGLSQDDDFVPWLNHHPSLDGYCSDFLRDVSSPVTVNEQESDMAVNQTAFPLFQRRKDGNESAPAASSSQYNGFQSHSLYGSDRARDLPSQQTNPDRFTQTQEPLITSNKPSLVNFSHFLRPATFAKTTNNNLHDTKEKSPQSPPNVFQTRVLGAKDSEDKVLNESVASATPKDNQKACLISEDSCRKDQESEKAVVCSSVGSGNSLDGPSESPSLSLKRKHSNIQDIDCHSEDVEEESGDGRKEAGPSRTGLGSKRSRSAEVHNLSERRRRDRINEKMRALQELIPNCNKVDKASMLDEAIEYLKSLQLQVQIMSMASGYYLPPAVMFPPGMGHYPAAAAAMAMGMGMPYAMGLPDLSRGGSSVNHGPQFQVSGMQQQPVAMGIPRVSGGGIFAGSSTIGNGSTRDLSGSKDQTTTNNNSNLKPIKRKQGSSDQFCGSS

The variants in the experiment derive from B1. The note with it: with phyb_arath PHYB.
In the case of G165V, the “effect of a mutation on the interaction” value is given as “decreasing interaction”.
